From patent US20090068158A1, “THYMIDYLATE KINASE MUTANTS AND USES THEREOF” (priority 2005, published 2009)

What was measured:
[1] = relative to wild-type tmpk; cited from earlier work
[2] = Enzymatic activity of tmpk mutants for AZT-MP; format: biochemical, human

B1: F105Y+R200A: modified human tmpk combining mutations F105Y and R200A (protein, UniProt P23919 2-212, looked up, variant F105Y R200A)
Thymidylate kinase: AARRGALIVLEGVDRAGKSTQSRKLVEALCAAGHRAELLRFPERSTEIGKLLSSYLQKKSDVEDHSVHLLFSANRWEQVPLIKEKLSQGVTLVVDRYAFSGVAYTGAKENFSLDWCKQPDVGLPKPDLVLFLQLQLADAAKRGAFGHERYENGAFQERALRCFHQLMKDTTLNWKMVDASKSIEAVHEDIRVLSEDAIATATEKPLGELWK
- enhanced activity for AZT-MP [1]: approximately 200 fold
- enzymatic activity / catalytic conversion compared to wild-type tmpk (in words) [2]: superior enzymatic activity
